Assay results as given in the supplement of paper PMC5998384.

Legend:
HeLa Kyoto [1] = assay: solubility in G1/S (NP-40 vs SDS abundance) (log2 ratio); higher = more soluble; conditions: cell cycle stage: G1/S
HeLa Kyoto [2] = assay: melting temperature (median over replicates), in situ; higher = more thermally stable
HeLa Kyoto [3] = assay: solubility change mitosis vs G1/S (difference of NP-40 vs SDS log2 ratios) (log2 ratio difference); higher = more soluble in mitosis
HeLa Kyoto [4] = assay: thermal stability score vs G1/S (z-score of summed log2 fold changes over temperatures); higher = more thermally stable than in G1/S
[5] = cell cycle stage: early G1 (4.5 h after nocodazole release)
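Throughout, for melting temperature (median over replicates), in situ: HeLa Kyoto cells synchronized by double thymidine or nocodazole block, proteins quantified by TMT10plex mass spectrometry, three independent biological replicates.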
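Throughout, for solubility change mitosis vs G1/S (difference of NP-40 vs SDS log2 ratios): synchronized HeLa Kyoto cells (double thymidine block for G1/S, nocodazole release for mitosis), protein amounts in NP-40 versus SDS lysates quantified by mass spectrometry, three biological replicates.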
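Throughout, for solubility in G1/S (NP-40 vs SDS abundance): HeLa Kyoto cells arrested at G1/S by double thymidine block, proteins quantified by TMT10plex mass spectrometry in mild NP-40 versus SDS extracts, three biological replicates.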
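Throughout, for thermal stability score vs G1/S (z-score of summed log2 fold changes over temperatures): synchronized HeLa Kyoto cells, proteins quantified by TMT10plex mass spectrometry, three biological replicates, mitosis taken 0.5 h after nocodazole release, G1/S directly after double thymidine block.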

Row | Substance | solubility in G1/S (log2) (HeLa Kyoto [1]) | melting temperature (HeLa Kyoto [2]; cell cycle stage: G1/S) | melting temperature (HeLa Kyoto [2]; cell cycle stage: mitosis) | solubility change mitosis (log2) (HeLa Kyoto [3]) | thermal stability score (HeLa Kyoto [4]; [5]) | thermal stability score (HeLa Kyoto [4]; cell cycle stage: mitosis)
1 | MKAFHTFCVVLLVFGSVSEAKFDDFEDEEDIVEYDDNDFAEFEDVMEDSVTESPQRVIITEDDEDETTVELEGQDENQEGDFEDADTQEGDTESEPYDDEEFEGYEDKPDTSSSKNKDPITIVDVPAHLQNSWESYYLEILMVTGLLAYIMNYIIGKNKNSRLAQAWFNTHRELLESNFTLVGDDGTNKEATSTGKLNQENEHIYNLWCSGRVCCEGMLIQLRFLKRQDLLNVLARMMRPVSDQVQIKVTMNDEDMDTYVFAVGTRKALVRLQKEMQDLSEFCSDKPKSGAKYGLPDSLAILSEMGEVTDGMMDTKMVHFLTHYADKIESVHFSDQFSGPKIMQEEGQPLKLPDTKRTLLFTFNVPGSGNTYPKDMEALLPLMNMVIYSIDKAKKFRLNREGKQKADKNRARVEENFLKLTHVQRQEAAQSRREEKKRAEKERIMNEEDPEKQRRLEEAALRREQKKLEKKQMKMKQIKVKAM [CCDC47] | -0.0628 | 52.9 °C | 52.7 °C | 0.000886 | 0.286 | -1.13
2 | MKCFFPVLSCLAVLGVVSAQRQVTVQEGPLYRTEGSHITIWCNVSGYQGPSEQNFQWSIYLPSSPEREVQIVSTMDSSFPYAIYTQRVRGGKIFIERVQGNSTLLHITDLQARDAGEYECHTPSTDKQYFGSYSAKMNLVVIPDSLQTTAMPQTLHRVEQDPLELTCEVASETIQHSHLSVAWLRQKVGEKPVEVISLSRDFMLHSSSEYAQRQSLGEVRLDKLGRTTFRLTIFHLQPSDQGEFYCEAAEWIQDPDGSWYAMTRKRSEGAVVNVQPTDKEFTVRLETEKRLHTVGEPVEFRCILEAQNVPDRYFAVSWAFNSSLIATMGPNAVPVLNSEFAHREARGQLKVAKESDSVFVLKIYHLRQEDSGKYNCRVTEREKTVTGEFIDKESKRPKNIPIIVLPLKSSISVEVASNASVILEGEDLRFSCSVRTAGRPQGRFSVIWQLVDRQNRRSNIMWLDRDGTVQPGSSYWERSSFGGVQMEQVQPNSFSLGIFNSRKEDEGQYECHVTEWVRAVDGEWQIVGERRASTPISITALEMGFAVTAISRTPGVTYSDSFDLQCIIKPHYPAWVPVSVTWRFQPVGTVEFHDLVTFTRDGGVQWGDRSSSFRTRTAIEKAESSNNVRLSISRASDTEAGKYQCVAELWRKNYNNTWTRLAERTSNLLEIRVLQPVTKLQVSKSKRTLTLVENKPIQLNCSVKSQTSQNSHFAVLWYVHKPSDADGKLILKTTHNSAFEYGTYAEEEGLRARLQFERHVSGGLFSLTVQRAEVSDSGSYYCHVEEWLLSPNYAWYKLAEEVSGRTEVTVKQPDSRLRLSQAQGNLSVLETRQVQLECVVLNRTSITSQLMVEWFVWKPNHPERETVARLSRDATFHYGEQAAKNNLKGRLHLESPSPGVYRLFIQNVAVQDSGTYSCHVEEWLPSPSGMWYKRAEDTAGQTALTVMRPDASLQVDTVVPNATVSEKAAFQLDCSIVSRSSQDSRFAVAWYSLRTKAGGKRSSPGLEEQEEEREEEEEEDDDDDDDPTERTALLSVGPDAVFGPEGSPWEGRLRFQRLSPVLYRLTVLQASPQDTGNYSCHVEEWLPSPQKEWYRLTEEESAPIGIRVLDTSPTLQSIICSNDALFYFVFFYPFPIFGILIITILLVRFKSRNSSKNSDGKNGVPLLWIKEPHLNYSPTCLEPPVLSIHPGAID [IGSF3] | -0.0153 | 54.3 °C | 53.8 °C | -0.047 | -2.57 | -2.96
3 | MKEPLLGGECDKAVASQLGLLDEIKTEPDNAQEYCHRQQSRTQENELKINAVFSESASQLTAGIQLSLASSGVNKMLPSVSTTAIQVSCAGCKKILQKGQTAYQRKGSAQLFCSIPCITEYISSASSPVPSKRTCSNCSKDILNPKDVISVQLEDTTSCKTFCSLSCLSSYEEKRKPFVTICTNSILTKCSMCQKTAIIQYEVKYQNVKHNLCSNACLSKFHSANNFIMNCCENCGTYCYTSSSLSHILQMEGQSHYFNSSKSITAYKQKPAKPLISVPCKPLKPSDEMIETTSDLGKTELFCSINCFSAYSKAKMESSSVSVVSVVHDTSTELLSPKKDTTPVISNIVSLADTDVALPIMNTDVLQDTVSSVTATADVIVDLSKSSPSEPSNAVASSSTEQPSVSPSSSVFSQHAIGSSTEVQKDNMKSMKISDELCHPKCTSKVQKVKGKSRSIKKSCCADFECLENSKKDVAFCYSCQLFCQKYFSCGRESFATHGTSNWKKTLEKFRKHEKSEMHLKSLEFWREYQFCDGAVSDDLSIHSKQIEGNKKYLKLIIENILFLGKQCLPLRGNDQSVSSVNKGNFLELLEMRAKDKGEETFRLMNSQVDFYNSTQIQSDIIEIIKTEMLQDIVNEINDSSAFSIICDETINSAMKEQLSICVRYPQKSSKAILIKERFLGFVDTEEMTGTHLHRTIKTYLQQIGVDMDKIHGQAYDSTTNLKIKFNKIAAEFKKEEPRALYIHCYAHFLDLSIIRFCKEVKELRSALKTLSSLFNTICMSGEMLANFRNIYRLSQNKTCKKHISQSCWTVHDRTLLSVIDSLPEIIETLEVIASHSSNTSFADELSHLLTLVSKFEFVFCLKFLYRVLSVTGILSKELQNKTIDIFSLSSKIEAILECLSSERNDVYFKTIWDGTEEICQKITCKGFKVEKPSLQKRRKIQKSVDLGNSDNMFFPTSTEEQYKINIYYQGLDTILQNLKLCFSEFDYCKIKQISELLFKWNEPLNETTAKHVQEFYKLDEDIIPELRFYRHYAKLNFVIDDSCINFVSLGCLFIQHGLHSNIPCLSKLLYIALSWPITSASTENSFSTLPRLKTYLCNTMGQEKLTGPALMAVEQELVNKLMEPERLNEIVEKFISQMKEI [ZMYM1] | -0.155 | – | 50.4 °C | -0.06 | 0.329 | 0.818
4 | MKFLLDILLLLPLLIVCSLESFVKLFIPKRRKSVTGEIVLITGAGHGIGRLTAYEFAKLKSKLVLWDINKHGLEETAAKCKGLGAKVHTFVVDCSNREDIYSSAKKVKAEIGDVSILVNNAGVVYTSDLFATQDPQIEKTFEVNVLAHFWTTKAFLPAMTKNNHGHIVTVASAAGHVSVPFLLAYCSSKFAAVGFHKTLTDELAALQITGVKTTCLCPNFVNTGFIKNPSTSLGPTLEPEEVVNRLMHGILTEQKMIFIPSSIAFLTTLERILPERFLAVLKRKISVKFDAVIGYKMKAQ [HSD17B11] | -0.334 | 55.1 °C | 54.8 °C | -0.138 | 0.073 | -3.33
5 | MKGTRAIGSVPERSPAGVDLSLTGLPPPVSRRPGSAATTKPIVRSVSVVTGSEQKRKVLEATGPGGSQAINNLRRSNSTTQVSQPRSGSPRPTEPTDFLMLFEGSPSGKKRPASLSTAPSEKGATWNVLDDQPRGFTLPSNARSSSALDSPAGPRRKECTVALAPNFTANNRSNKGAVGNCVTTMVHNRYTPSERAPPLKSSNQTAPSLNNIIKAATCEGSESSGFGKLPKNVSSATHSARNNTGGSTGLPRRKEVTEEEAERFIHQVNQATVTIQRWYRHQVQRRGAGAARLEHLLQAKREEQRQRSGEGTLLDLHQQKEAARRKAREEKARQARRAAIQELQQKRALRAQKASTAERGPPENPRETRVPGMRQPAQELSPTPGGTAHQALKANNTGGGLPAAGPGDRCLPTSDSSPEPQQPPEDRTQDVLAQDAAGDNLEMMAPSRGSAKSRGPLEELLHTLQLLEKEPDVLPRPRTHHRGRYAWASEVTTEDDASSLTADNLEKFGKLSAFPEPPEDGTLLSEAKLQSIMSFLDEMEKSGQDQLDSQQEGWVPEAGPGPLELGSEVSTSVMRLKLEVEEKKQAMLLLQRALAQQRDLTARRVKETEKALSRQLQRQREHYEATIQRHLAFIDQLIEDKKVLSEKCEAVVAELKQEDQRCTERVAQAQAQHELEIKKLKELMSATEKARREKWISEKTKKIKEVTVRGLEPEIQKLIARHKQEVRRLKSLHEAELLQSDERASQRCLRQAEELREQLEREKEALGQQERERARQRFQQHLEQEQWALQQQRQRLYSEVAEERERLGQQAARQRAELEELRQQLEESSSALTRALRAEFEKGREEQERRHQMELNTLKQQLELERQAWEAGRTRKEEAWLLNREQELREEIRKGRDKEIELVIHRLEADMALAKEESEKAAESRIKRLRDKYEAELSELEQSERKLQERCSELKGQLGEAEGENLRLQGLVRQKERALEDAQAVNEQLSSERSNLAQVIRQEFEDRLAASEEETRQAKAELATLQARQQLELEEVHRRVKTALARKEEAVSSLRTQHEAAVKRADHLEELLEQHRRPTPSTK [CEP131] | 0.0853 | 50.5 °C | 49.2 °C | 0.357 | -0.343 | 1.44
6 | MKI67 | -1.82 | 49.4 °C | 52 °C | 1.29 | 5.66 | 0.979
